Assay results from paper PMC10082178.

What was measured:
[1] = molecular target: N-terminal eGFP-tagged human CLEC-2 (CLEC-2-eGFP) (human) (UniProt Q9P126)
[2] = molecular target: integrin αIIbβ3 (human (endogenous in platelets)) (UniProt P05106); test: native gel or EMSA; SMA-PAGE: whole cell SMALPs of resting human platelets (2.5% SMA, NaCl to 500 mM) on native Tris-Glycine gels, western blot with anti-αIIb or anti-CLEC-2 AYP2

Sequence of UniProt Q9P126 (Q9P126 whole entry): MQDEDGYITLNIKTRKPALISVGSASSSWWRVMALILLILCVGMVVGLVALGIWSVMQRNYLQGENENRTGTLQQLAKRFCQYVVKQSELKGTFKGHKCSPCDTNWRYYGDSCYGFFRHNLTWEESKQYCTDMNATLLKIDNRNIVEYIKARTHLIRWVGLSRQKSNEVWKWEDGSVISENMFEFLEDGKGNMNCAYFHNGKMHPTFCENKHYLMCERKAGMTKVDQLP

Row | stoichiometry N [2] | Substance | NFAT-luciferase response to rhodocytin (30 nM) in low-expressing CLEC-2-eGFP (100 ng) DT40 cells: percent blocked by LUAS-2 (3 μM, 30 min before rhodocytin) [1] [%]
1 |  | rhodocytin (complex) | 50
2 | 2 | integrin αIIbβ3 (from UniProt P05106 27-788) (complex) | 
